The results in this text go back to patent EP4725501A1 (Staidson (Beijing) Biopharmaceuticals Co., Ltd., dated 2026).

Assay [1] deals with T1, human MASP3-His (human, UniProt P48740-2 20-728).
T1 sequence (looked up): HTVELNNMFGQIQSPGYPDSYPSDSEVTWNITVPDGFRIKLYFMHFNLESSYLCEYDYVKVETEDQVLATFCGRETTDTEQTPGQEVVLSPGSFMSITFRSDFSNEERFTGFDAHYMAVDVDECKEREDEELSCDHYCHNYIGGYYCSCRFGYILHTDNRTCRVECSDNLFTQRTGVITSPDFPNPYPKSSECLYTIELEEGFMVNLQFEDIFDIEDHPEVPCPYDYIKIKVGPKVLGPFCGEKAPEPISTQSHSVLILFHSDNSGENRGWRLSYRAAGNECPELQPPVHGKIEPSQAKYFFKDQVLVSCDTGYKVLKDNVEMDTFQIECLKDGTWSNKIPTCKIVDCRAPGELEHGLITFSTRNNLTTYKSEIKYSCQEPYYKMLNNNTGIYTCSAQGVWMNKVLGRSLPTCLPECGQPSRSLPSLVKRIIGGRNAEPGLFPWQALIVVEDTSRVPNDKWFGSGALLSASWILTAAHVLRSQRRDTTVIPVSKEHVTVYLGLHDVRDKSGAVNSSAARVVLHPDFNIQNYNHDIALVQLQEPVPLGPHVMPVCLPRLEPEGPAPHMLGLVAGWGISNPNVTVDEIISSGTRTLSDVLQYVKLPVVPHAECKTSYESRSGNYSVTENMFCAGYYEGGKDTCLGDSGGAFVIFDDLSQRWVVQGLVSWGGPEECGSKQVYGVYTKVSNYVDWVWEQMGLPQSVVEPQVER
Put plainly: cell-based or functional assay.

For assay [2], the target named is T2, MASP3 in Factor D depleted human plasma (human, UniProt P48740-2 20-728).
T2 sequence (looked up): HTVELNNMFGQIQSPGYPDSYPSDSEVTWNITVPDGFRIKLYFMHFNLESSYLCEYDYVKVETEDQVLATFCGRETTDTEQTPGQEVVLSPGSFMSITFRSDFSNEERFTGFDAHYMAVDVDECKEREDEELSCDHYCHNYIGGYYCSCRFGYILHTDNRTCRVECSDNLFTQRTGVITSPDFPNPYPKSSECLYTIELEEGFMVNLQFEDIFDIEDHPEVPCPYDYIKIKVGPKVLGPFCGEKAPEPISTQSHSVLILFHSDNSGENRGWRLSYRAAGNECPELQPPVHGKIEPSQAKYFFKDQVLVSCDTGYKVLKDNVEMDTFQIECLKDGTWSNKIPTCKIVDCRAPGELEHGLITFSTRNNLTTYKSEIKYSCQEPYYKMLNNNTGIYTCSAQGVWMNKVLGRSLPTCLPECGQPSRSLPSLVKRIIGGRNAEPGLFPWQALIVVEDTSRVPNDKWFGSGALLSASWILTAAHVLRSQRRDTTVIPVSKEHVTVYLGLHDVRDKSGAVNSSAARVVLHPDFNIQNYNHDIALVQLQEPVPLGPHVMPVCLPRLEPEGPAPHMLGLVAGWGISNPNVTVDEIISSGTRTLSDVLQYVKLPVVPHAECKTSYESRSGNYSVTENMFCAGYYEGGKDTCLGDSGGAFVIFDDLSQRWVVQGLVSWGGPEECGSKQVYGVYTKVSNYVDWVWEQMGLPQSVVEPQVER
Put plainly: cell-based or functional assay.

Another assay addresses T3, mouse MASP3-His (mouse, UniProt P98064-2 25-733).
T3 construct: not shown: His tag added to the terminal
T3 sequence (looked up): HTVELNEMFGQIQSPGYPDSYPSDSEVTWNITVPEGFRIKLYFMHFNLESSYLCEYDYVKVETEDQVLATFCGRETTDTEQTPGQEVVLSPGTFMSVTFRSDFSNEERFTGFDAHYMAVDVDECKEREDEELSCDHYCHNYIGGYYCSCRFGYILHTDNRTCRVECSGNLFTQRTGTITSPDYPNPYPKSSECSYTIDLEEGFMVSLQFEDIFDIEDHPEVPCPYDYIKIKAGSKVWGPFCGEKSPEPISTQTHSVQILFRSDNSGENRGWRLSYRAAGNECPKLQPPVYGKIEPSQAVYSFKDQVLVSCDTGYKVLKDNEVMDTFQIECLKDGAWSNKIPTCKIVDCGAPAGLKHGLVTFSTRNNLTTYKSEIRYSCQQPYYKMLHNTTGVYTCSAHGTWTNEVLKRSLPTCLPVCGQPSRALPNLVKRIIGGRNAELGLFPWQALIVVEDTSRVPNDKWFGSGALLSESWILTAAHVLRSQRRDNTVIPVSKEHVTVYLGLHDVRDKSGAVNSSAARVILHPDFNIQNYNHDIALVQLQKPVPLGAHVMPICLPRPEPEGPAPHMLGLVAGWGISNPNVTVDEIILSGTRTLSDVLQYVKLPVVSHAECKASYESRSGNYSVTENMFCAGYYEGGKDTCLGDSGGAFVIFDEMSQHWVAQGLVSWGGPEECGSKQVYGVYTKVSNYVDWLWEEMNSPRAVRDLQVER
Put plainly: SPR (Biacore 8K); antibody immobilized on CM5 chip, antigen as analyte. (Surface plasmon resonance follows binding to a sensor surface in real time, without labels.)

Another assay addresses T4, monkey MASP3-His (monkey).
T4 construct: monkey species not further specified
Described as above.

In assay [3] the target is T1, human MASP3-His. The assay is described as above.

B1: M3-K2-7 (antibody, V domains shown)
VH: QVQLVQSGAEVKKPGASVKVSCKASGYTFTGKWIEWVRQAPGQGLEWIGEILPGSGSTDYNERFKDRATFTADTSTSTAYMELSSLRSEDTAVYYCVRSEDLWGQGTLVTVSS
VL: DIVMTQSPDSLAVSLGERATINCKSSQNLFNSRTRKNYLAWFQQKPGQSPKLLIYWASTRESGVPDRFSGSGSGTDFTLTISSLQAEDVAVYYCKQSYIPFTFGGGTKVEIK
As to B1, in the assay with human MASP3-His [1], the “IC50 (nM), inhibition of MASP3 enzyme activity (fluorescent tripeptide cleavage)” value (shortened to “IC50 (nM), inhibition”) amounted to 25.2 nM.

B2: M3-K1-6 (antibody, V domains shown)
VH: QVQLVQSGAEVKKPGASVKVSCKASGYTFTGKWIEWVRQAPGQGLEWMGEILPGSGSTDYNERFKDRVTFTADTSTSTVYMELSSLRSEDTAVYYCVRSEDLWGQGTLVTVSS
VL: DIVMTQSPDSLAVSLGERATINCKSSQSLLNSVTRKTYLAWYQQKPGQSPKLLIYWASTRESGVPDRFSGSGSGTDFTLTISSLQAEDVAVYYCKQSYTLPTFGGGTKVEIK
B2: in the assay with human MASP3-His [1], the “IC50 (nM), inhibition” value stood at 28.2 nM.

B3: M3-K1-4 (antibody, V domains shown)
VH: QVQLVQSGAEVKKPGASVKVSCKASGYTFTGKWIEWVRQAPGQGLEWMGEILPGSGSTDYNERFKDRATFTADTSTSTAYMELSSLRSEDTAVYYCVRSEDLWGQGTLVTVSS
VL: DIVMTQSPDSLAVSLGERATINCKSSQSLLNSVTRKTYLAWYQQKPGQSPKLLIYWASTRESGVPDRFSGSGSGTDFTLTISSLQAEDVAVYYCKQSYTLPTFGGGTKVEIK
Regarding B3, in the assay with human MASP3-His [1], the “IC50 (nM), inhibition” value was determined as 29.9 nM.

B4: M3-K2-9 (antibody, V domains shown)
VH: QVQLVQSGAEVKKPGASVKVSCKASGYTFTGKWIEWVRQAPGQGLEWMGEILPGSGSTDYNERFKDRATFTADTSTSTAYMELSSLRSEDTAVYYCVRSEDLWGQGTLVTVSS
VL: DIVMTQSPDSLAVSLGERATINCKSSQNLFNSRTRKNYLAWFQQKPGQSPKLLIYWASTRESGVPDRFSGSGSGTDFTLTISSLQAEDVAVYYCKQSYIPFTFGGGTKVEIK
For B4, in the assay with human MASP3-His [1], the “IC50 (nM), inhibition” value is 33.7 nM.

B5: M3-K2-5 (antibody, V domains shown)
VH: QVQLVQSGAEVKKPGASVKVSCKASGYTFTGKWIEWVRQAPGQGLEWMGEILPGSGSTDYNERFKDRVTFTADTSTSTVYMELSSLRSEDTAVYYCVRSEDLWGQGTLVTVSS
VL: EIVLTQSPATLSVSPGERATLSCKSSQNLFNSRTRKNYLAWFQQKPGQSPRLLIYWASTRESGIPARFSGSGSGTEFTLTISSLQSEDFAVYYCKQSYIPFTFGGGTKVEIK
Regarding B5, the “Inhibit hemolysis IC50” value in assay [2] turned out to be 3.41 nM.

B6: M3-K2-11 (antibody, V domains shown)
VH: QVQLVQSGAEVKKPGASVKVSCKASGYTFTGKWIEWVRQAPGQGLEWMGEILPGSGSTDYNERFKDRVTFTADTSTSTVYMELSSLRSEDTAVYYCVRSEDLWGQGTLVTVSS
VL: DIVMTQSPDSLAVSLGERATINCKSSQNLFNSRTRKNYLAWFQQKPGQSPKLLIYWASTRESGVPDRFSGSGSGTDFTLTISSLQAEDVAVYYCKQSYIPFTFGGGTKVEIK
notes: Humanized M3-K2
A word on the Kd: it is the equilibrium constant for the complex coming apart. As usually defined, the koff is a measure of how fast the partners let go of each other. As a reminder, the kon is a measure of how fast the partners come together. For the molecule B6, the “Inhibit hemolysis IC50” value in assay [2] worked out at 2.2 nM. In the assay with mouse MASP3-His, this molecule returned a Kd of 0.86 nM, a koff of 0.000145 s⁻¹ and a kon of 168000 M⁻¹ s⁻¹. In the assay with monkey MASP3-His, this molecule had a Kd of 0.86 nM, a dissociation rate constant (koff) of 0.000144 s⁻¹ and a kon of 167000 M⁻¹ s⁻¹. Further, in the assay with human MASP3-His [3], binding was characterised by a dissociation constant (Kd) of 1.34 nM, the koff came out at 0.000218 s⁻¹ and the kon came out at 163000 M⁻¹ s⁻¹. Besides, the “IC50 (nM), inhibition” value with human MASP3-His [1] was found to be 26.4 nM.

B7: M3-K2-6 (antibody, V domains shown)
VH: QVQLVQSGAEVKKPGASVKVSCKASGYTFTGKWIEWVRQAPGQGLEWIGEILPGSGSTDYNERFKDRATFTADTSTSTAYMELSSLRSEDTAVYYCVRSEDLWGQGTLVTVSS
VL: DIVLTQSPDSLAVSLGERATINCKSSQNLFNSRTRKNYLAWFQQKPGQSPKLLIYWASTRESGVPDRFSGSGSGTDFTLTISSLQAEDVAVYYCKQSYIPFTFGGGTKVEIK
notes: Humanized M3-K2
Turning to B7, in assay [2], the “Inhibit hemolysis IC50” value worked out at 3.18 nM. Also, the Kd was found to be 0.887 nM with mouse MASP3-His, 0.887 nM in the assay with monkey MASP3-His and 1.45 nM with human MASP3-His [3]. The values for the koff with mouse MASP3-His, in the assay with monkey MASP3-His and with human MASP3-His [3] were 0.000149 s⁻¹, 0.000147 s⁻¹ and 0.00025 s⁻¹, respectively. Also, the association rate constant (kon) stood at 168000 M⁻¹ s⁻¹ with mouse MASP3-His, 165000 M⁻¹ s⁻¹ with monkey MASP3-His and 173000 M⁻¹ s⁻¹ in the assay with human MASP3-His [3]. Also, in the assay with human MASP3-His [1], the “IC50 (nM), inhibition” value turned out to be 29.5 nM.
